Data: IntAct's records for PubMed 38225382

B1: Peroxisomal biogenesis factor 19 (Homo sapiens), P40855 (parent)
chain: MAAAEEGCSVGAEADRELEELLESALDDFDKAKPSPAPPSTTTAPDASGPQKRSPGDTAKDALFASQEKFFQELFDSELASQATAEFEKAMKELAEEEPHLVEQFQKLSEAAGRVGSDMTSQQEFTSCLKETLSGLAKNATDLQNSSMSEEELTKAMEGLGMDEGDGEGNILPIMQSIMQNLLSKDVLYPSLKEITEKYPEWLQSHRESLPPEQFEKYQEQHSVMCKICEQFEAETPTDSETTQKARFEMVLDLMQQLQDLGHPPKELAGEMPPGLNFDLDALNLSGPPGASGEQCLIM
B2: E3 ubiquitin-protein ligase TRIM37 (Homo sapiens), O94972 (parent)
chain: MDEQSVESIAEVFRCFICMEKLRDARLCPHCSKLCCFSCIRRWLTEQRAQCPHCRAPLQLRELVNCRWAEEVTQQLDTLQLCSLTKHEENEKDKCENHHEKLSVFCWTCKKCICHQCALWGGMHGGHTFKPLAEIYEQHVTKVNEEVAKLRRRLMELISLVQEVERNVEAVRNAKDERVREIRNAVEMMIARLDTQLKNKLITLMGQKTSLTQETELLESLLQEVEHQLRSCSKSELISKSSEILMMFQQVHRKPMASFVTTPVPPDFTSELVPSYDSATFVLENFSTLRQRADPVYSPPLQVSGLCWRLKVYPDGNGVVRGYYLSVFLELSAGLPETSKYEYRVEMVHQSCNDPTKNIIREFASDFEVGECWGYNRFFRLDLLANEGYLNPQNDTVILRFQVRSPTFFQKSRDQHWYITQLEAAQTSYIQQINNLKERLTIELSRTQKSRDLSPPDNHLSPQNDDALETRAKKSACSDMLLEGGPTTASVREAKEDEEDEEKIQNEDYHHELSDGDLDLDLVYEDEVNQLDGSSSSASSTATSNTEENDIDEETMSGENDVEYNNMELEEGELMEDAAAAGPAGSSHGYVGSSSRISRRTHLCSAATSSLLDIDPLILIHLLDLKDRSSIENLWGLQPRPPASLLQPTASYSRKDKDQRKQQAMWRVPSDLKMLKRLKTQMAEVRCMKTDVKNTLSEIKSSSAASGDMQTSLFSADQAALAACGTENSGRLQDLGMELLAKSSVANCYIRNSTNKKSNSPKPARSSVAGSLSLRRAVDPGENSRSKGDCQTLSEGSPGSSQSGSRHSSPRALIHGSIGDILPKTEDRQCKALDSDAVVVAVFSGLPAVEKRRKMVTLGANAKGGHLEGLQMTDLENNSETGELQPVLPEGASAAPEEGMSSDSDIECDTENEEQEEHTSVGGFHDSFMVMTQPPDEDTHSSFPDGEQIGPEDLSFNTDENSGR
B3: F-box only protein 28 (Homo sapiens), Q9NVF7 (parent)
chain: MAAAAEERMAEEGGGGQGDGGSSLASGSTQRQPPPPAPQHPQPGSQALPAPALAPDQLPQNNTLVALPIVAIENILSFMSYDEISQLRLVCKRMDLVCQRMLNQGFLKVERYHNLCQKQVKAQLPRRESERRNHSLARHADILAAVETRLSLLNMTFMKYVDSNLCCFIPGKVIDEIYRVLRYVNSTRAPQRAHEVLQELRDISSMAMEYFDEKIVPILKRKLPGSDVSGRLMGSPPVPGPSAALTTMQLFSKQNPSRQEVTKLQQQVKTNGAGVTVLRREISELRTKVQEQQKQLQDQDQKLLEQTQIIGEQNARLAELERKLREVMESAVGNSSGSGQNEESPRKRKKATEAIDSLRKSKRLRNRK
B4: Estrogen-related receptor gamma (Homo sapiens), P62508-3 (parent)
chain: MSNKDRHIDSSCSSFIKTEPSSPASLTDSVNHHSPGGSSDASGSYSSTMNGHQNGLDSPPLYPSAPILGGSGPVRKLYDDCSSTIVEDPQTKCEYMLNSMPKRLCLVCGDIASGYHYGVASCEACKAFFKRTIQGNIEYSCPATNECEITKRRRKSCQACRFMKCLKVGMLKEGVRLDRVRGGRQKYKRRIDAENSPYLNPQLVQPAKKPLLWSDPADNKIVSHLLVAEPEKIYAMPDPTVPDSDIKALTTLCDLADRELVVIIGWAKHIPGFSTLSLADQMSLLQSAWMEILILGVVYRSLSFEDELVYADDYIMDEDQSKLAGLLDLNNAILQLVKKYKSMKLEKEEFVTLKAIALANSDSMHIEDVEAVQKLQDVLHEALQDYEAGQHMEDPRRAGKMLMTLPLLRQTSTKAVQHFYNIKLEGKVPMHKLFLEMLEAKV
B5: Peroxisomal biogenesis factor 3 (Homo sapiens), P56589 (parent)
chain: MLRSVWNFLKRHKKKCIFLGTVLGGVYILGKYGQKKIREIQEREAAEYIAQARRQYHFESNQRTCNMTVLSMLPTLREALMQQLNSESLTALLKNRPSNKLEIWEDLKIISFTRSTVAVYSTCMLVVLLRVQLNIIGGYIYLDNAAVGKNGTTILAPPDVQQQYLSSIQHLLGDGLTELITVIKQAVQKVLGSVSLKHSLSLLDLEQKLKEIRNLVEQHKSSSWINKDGSKPLLCHYMMPDEETPLAVQACGLSPRDITTIKLLNETRDMLESPDFSTVLNTCLNRGFSRLLDNMAEFFRPTEQDLQHGNSMNSLSSVSLPLAKIIPIVNGQIHSVCSETPSHFVQDLLTMEQVKDFAANVYEAFSTPQQLEK

Variants of: B1
Conditions: with pex3_human PEX3, P56589

Variant | effect of a mutation on the interaction
MAAAEEGCSVGAEADRELEELLESALDDKDKAKPSPAPPSTTTAPDASGPQKRSPGDTAKDALFASQEKFFQELFDSELASQATAEFEKAMKELAEEEPHLVEQFQKLSEAAGRVGSDMTSQQEFTSCLKETLSGLAKNATDLQNSSMSEEELTKAMEGLGMDEGDGEGNILPIMQSIMQNLLSKDVLYPSLKEITEKYPEWLQSHRESLPPEQFEKYQEQHSVMCKICEQFEAETPTDSETTQKARFEMVLDLMQQLQDLGHPPKELAGEMPPGLNFDLDALNLSGPPGASGEQCLIM [F29K] | decreasing interaction strength

Variants of: B2
Conditions: with pnkp_human PNKP

Variant | effect of a mutation on the interaction
F328R | with no effect
N376R | with no effect

Variants of: B3
Conditions: with stx1b_human STX1B

Variant | effect of a mutation on the interaction
MAAAAEERMAEEGGGGQGDGGSSLASGSTQRQPPPPAPQHPQPGSQALPAPALAPDQLPQNNTLVALPIVAIENILSFMSYDEISQLRLVCKRMDLVCQRMLNQGFLKVERYHNLCQKQVKAQLPRRESERRNHSLARHADILAAVETRLSLLNMTFMKYVDSNLCCFIPGKVIDEIYRVLRYVNSTRAPQRAHEVLQELRDISSMAMEYFDEKIVPILKRKLPGSDVSGRLMGSPPVPGPSAALTTMQLFSKQNPSRQEVTKLQQQVKTNGAGVTVLRREISELRTKVQEQQKQLQDQDQKLLEQTQIIGEQNARLAELERKLREVMESAVGNSSGSGQNEESPRKLKKATEAIDSLRKSKRLRNRK [R348L] | increasing interaction strength
MAAAAEERMAEEGGGGQGDGGSSLASGSTQRQPPPPAPQHPQPGSQALPAPALAPDQLPQNNTLVALPIVAIENILSFMSYDEISQLRLVCKRMDLVCQRMLNQGFLKVERYHNLCQKQVKAQLPRRESERRNHSLARHADILAAVETRLSELNMTFMKYVDSNLCCFIPGKVIDEIYRVLRYVNSTRAPQRAHEVLQELRDISSMAMEYFDEKIVPILKRKLPGSDVSGRLMGSPPVPGPSAALTTMQLFSKQNPSRQEVTKLQQQVKTNGAGVTVLRREISELRTKVQEQQKQLQDQDQKLLEQTQIIGEQNARLAELERKLREVMESAVGNSSGSGQNEESPRKRKKATEAIDSLRKSKRLRNRK [L152E] | decreasing interaction strength
MAAAAEERMAEEGGGGQGDGGSSLASGSTQRQPPPPAPQHPQPGSQALPAPALAPDQLPQNNTLVALPIVAIENILSFMSYDEISQLRLVCKRMDLVCQRMLNQGFLKVERYHNLCQKQVKAQLPRRESERRNHSLARHADILAAVETRLSLLNMTFMKYVDSNLCCFIPGKVIDEIYRVLRYVNSTRAPQRAHEVLQELRDISSMAMEYFDEKIVPILKRKLPGSDVSGRLMGSPPVPGPSAALTTMQLFSKQNPSRQEVTKLQQQVKTNGAGVTVLRREISELRTKVQEQQKQLQDQDQKLLEQTQIIGEQNARLAELERKLREVMESAVGNSSGSGQNEESPRKRKKATEARDSLRKSKRLRNRK [I355R] | with no effect

Variants of: B4
Conditions: with prs8_human PSMC5, P62195
prs8_human PSMC5, P62195, sequence (P62195 whole entry): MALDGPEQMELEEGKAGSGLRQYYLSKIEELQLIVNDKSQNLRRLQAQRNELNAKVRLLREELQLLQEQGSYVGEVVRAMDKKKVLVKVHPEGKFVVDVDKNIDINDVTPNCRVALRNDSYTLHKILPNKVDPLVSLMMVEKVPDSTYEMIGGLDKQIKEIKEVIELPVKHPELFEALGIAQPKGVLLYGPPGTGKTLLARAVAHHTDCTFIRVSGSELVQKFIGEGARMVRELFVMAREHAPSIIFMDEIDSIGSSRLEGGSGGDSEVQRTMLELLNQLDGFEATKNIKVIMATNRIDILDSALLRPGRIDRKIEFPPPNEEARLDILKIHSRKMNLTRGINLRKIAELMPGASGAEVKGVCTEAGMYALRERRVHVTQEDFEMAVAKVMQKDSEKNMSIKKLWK

Variant | effect of a mutation on the interaction
MSNKDRHIDSSCSSFIKTEPSSPASLTDSVNHHSPGGSSDASGSYSSTMNGHQNGLDSPPLYPSAPILGGSGPVRKLYDDCSSTIVEDPQTKCEYMLNSMPKRLCLVCGDIASGYHYGVASCEACKAFFKRTIQGNIEYSCPATNECEITKRRRKSCQACRFMKCLKVGMLKEGVRLDRVRGGRQKYKRRIDAENSPYLNPQLVQPAKKPLLWSDPADNKIVSHLLVAEPEKIYAMPDPTVPDSDIKALTTLCDLADRELVVIIGWAKHIPGFSTLSLADQMSLLQSAWMEILILGVVYRSLSFEDELVYADDYIMDEDQSKLAGLLDLNNAILQLVKKYKSMKLEKEEFVTLKAIALANSDSMHIEDVEAVQKLQDVLHEALQDYEAGQHMEDPRRAGKMLMTLPLLRQTSTKAVQHFYNIKLEGKVPMHKLFLEFLEAKV [M437F] | decreasing interaction strength
MSNKDRHIDSSCSSFIKTEPSSPASLTDSVNHHSPGGSSDASGSYSSTMNGHQNGLDSPPLYPSAPILGGSGPVRKLYDDCSSTIVEDPQTKCEYMLNSMPKRLCLVCGDIASGYHYGVASCEACKAFFKRTIQGNIEYSCPATNECEITKRRRKSCQACRFMKCLKVGMLKEGVRLDRVRGGRQKYKRRIDAENSPYLNPQLVQPAKKPLLWSDPADNKIVSHLLVAEPEKIYAMPDPTVPDSDIKALTTLCDLADRELVVIEGWAKHIPGFSTLSLADQMSLLQSAWMEILILGVVYRSLSFEDELVYADDYIMDEDQSKLAGLLDLNNAILQLVKKYKSMKLEKEEFVTLKAIALANSDSMHIEDVEAVQKLQDVLHEALQDYEAGQHMEDPRRAGKMLMTLPLLRQTSTKAVQHFYNIKLEGKVPMHKLFLEMLEAKV [I264E] | decreasing interaction strength

Variants of: B5
Conditions: with pex16_human PEX16, Q9Y5Y5
pex16_human PEX16, Q9Y5Y5, sequence (Q9Y5Y5 whole entry): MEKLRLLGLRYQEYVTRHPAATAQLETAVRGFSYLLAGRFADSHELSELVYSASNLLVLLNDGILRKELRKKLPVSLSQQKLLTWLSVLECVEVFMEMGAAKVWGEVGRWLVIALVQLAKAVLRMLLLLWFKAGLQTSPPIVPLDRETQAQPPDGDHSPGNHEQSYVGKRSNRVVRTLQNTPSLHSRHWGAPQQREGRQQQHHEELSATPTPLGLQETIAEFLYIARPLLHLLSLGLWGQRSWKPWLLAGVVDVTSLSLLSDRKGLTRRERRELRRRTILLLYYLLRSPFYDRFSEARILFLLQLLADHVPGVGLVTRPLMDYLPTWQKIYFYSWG

Variant | effect of a mutation on the interaction
MLRSVWNFLKRHKKKCIFLGTVLGGVYILGKYGQKKIREIQEREAAEYIAQARSQYHFESNQRTCNMTVLSMLPTLREALMQQLNSESLTALLKNRPSNKLEIWEDLKIISFTRSTVAVYSTCMLVVLLRVQLNIIGGYIYLDNAAVGKNGTTILAPPDVQQQYLSSIQHLLGDGLTELITVIKQAVQKVLGSVSLKHSLSLLDLEQKLKEIRNLVEQHKSSSWINKDGSKPLLCHYMMPDEETPLAVQACGLSPRDITTIKLLNETRDMLESPDFSTVLNTCLNRGFSRLLDNMAEFFRPTEQDLQHGNSMNSLSSVSLPLAKIIPIVNGQIHSVCSETPSHFVQDLLTMEQVKDFAANVYEAFSTPQQLEK [R54S] | decreasing interaction strength
